This experiment concerns the target T1, BcgI A subunit, E53A mutant (UniProt Q07605 1-637, E53A).
T1 sequence (looked up): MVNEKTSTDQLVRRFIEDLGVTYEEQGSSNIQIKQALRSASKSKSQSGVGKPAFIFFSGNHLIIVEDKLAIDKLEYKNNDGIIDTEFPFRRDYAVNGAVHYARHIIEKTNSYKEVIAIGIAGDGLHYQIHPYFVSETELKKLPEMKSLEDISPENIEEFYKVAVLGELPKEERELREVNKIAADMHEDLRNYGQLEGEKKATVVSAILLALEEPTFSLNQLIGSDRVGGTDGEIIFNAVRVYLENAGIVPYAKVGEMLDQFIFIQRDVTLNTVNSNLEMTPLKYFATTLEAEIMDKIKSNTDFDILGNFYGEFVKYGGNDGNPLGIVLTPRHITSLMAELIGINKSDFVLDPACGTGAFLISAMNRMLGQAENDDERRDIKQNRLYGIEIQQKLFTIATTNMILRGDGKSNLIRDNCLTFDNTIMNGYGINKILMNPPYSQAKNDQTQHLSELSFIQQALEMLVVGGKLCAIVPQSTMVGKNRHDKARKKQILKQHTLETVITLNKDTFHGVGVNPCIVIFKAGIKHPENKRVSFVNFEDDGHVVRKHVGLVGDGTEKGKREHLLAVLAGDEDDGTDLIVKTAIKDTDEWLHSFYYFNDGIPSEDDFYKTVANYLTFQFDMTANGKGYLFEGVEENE
Put plainly: native MS.

B1: BcgI B subunit (natural protein, UniProt Q07606 1-341, looked up)
chain: MNNLIKYSTFLISDLFDVVIGKTIDGNKAQRNENGTPYITRKATRNGFEFMIDGEKEKLYSGKLPVITIGNETSKPFVQEFHFFTGTKVNICIPKLDLNRNHLLYITTMIENATKMFSYSYTINSTRLKSLKILLPIKGEEPDWDYMNTYISKILSNMEKNFDVQQNDGVSDLRSLKDLSWSQFKMDEIFSINSGVRLTKADMKPGNIPFIGATDSNNGITEFTSSTNASFDGNVLGVNYNGSVVENFYHPYKAVFSDDVKRLKLKNYPNNKHVLLFMKVVILQQKVKYAYGYKFNATRMKEQIILLPTKADGTPDYEFMEQYMMRMENKVVGRTTEKEAD
Turning to B1, the binding result is reported as “binds”.

(Values after publication PMC3592466 (Nucleic Acids Research, 2012).)
